The record followed here is IntAct's records for PubMed 22922713.

The chains are these.
B1: WD repeat-containing protein 19 (Mus musculus), Q3UGF1 (parent)
chain: MKRVFSLLEKSWLGAPIQFAWQKSSGNYLAVTGADYIVKIFDRHGQKRSEISLPGNCVTMDWDKDGDILAVIAEKSSCIYLWDANTNKTSQLDNGMRDQMSFLLWSKIGSFLAVGTIKGNLLIYNHQTSRKIPVLGKHTKKITCGCWNSENLLALGGEDKMITVSNQEGDTIRQTPVKSEPSDIKFSMSKTDERISSAENTISAVVGKKMLFLFHLNEPDNPVDLEFQQAYGNIVCYSWYGDGYIMIGFSRGTFLAISTHFPEVGQEIFKARDHKDNLTSVALSQTLNKAATCGDNCIKIHDLTELRDMYAIINLDDENKGLGTLSWTDDGQLLALSTQRGSLHVFLTKLPILGDACHTRIAYLTSLLEVTVANLIEGEPPITVSVDVEPTFVAVGLYHLAVGMNNRAWFYVLGENVVKKLKDVEYLGTVASICLHSDYAAALFEGKIQLHLIENEMLDAQEERETRLFPAVDDKCRILCHALTSDFLIYGTDTGIIHYFFIEDWQFVNDYRHPVGVKKLFPDPNGTRLVFIDEKSDGFVYCPVNDATYEIPDFSPTIKGVLWENWPMDKGVFIAYDDDKVYTYAFHKDTIQGSKVILAGSTKLPFSHKPLLLYNGELTCQTQSGKINSIYLSTHSFLGSMKDTEPTDLRQMLTQTLLLKRFSDAWDICKMLNDRTSWSELAKACLHHMEVEFAIRVSRTMGDVGTVMSLEQIKGIEDYNLLAGHLAMFTNDFNLAQDLYLASNCPVAALEMRRDLQHWDSALQLAKRLAPDQIPFISKEYAIQLEFTGDYVNALAHYEKGITGDNKEHDEVCLAGVAQMSIRMGDIRRGANQALKHPSRVLKRDCGAILENMKQFSEAAQLYEKGQYYDRAASVYIRCKNWAKVGELLPHVSSPKIHLQYAKAKEADGRYKEAVVAYENAKQWNSVIRIYLDHLNNPEKAVSIVRETQSLDGAKMVARFFLQLGDYGSAIQFLVLSKCNNEAFTLAQQHNKMEIYADIIGAEDTTNEDYQSIALYFEGEKRHFQAGKFFLLCGQYSRALKHFLKCPSSEDNVAIEMAIETVGQAKDELLTNQLIDHLMGESDGMPKDAKYLFRLYMALKQYREAARTAIIIAREEQSAGNYRNAHDVLFSMYAELKAQKIKIPSEMATNLMILHSYILVKIHVKSGDHMKGARMLIRVANNISKFPSHIVPILTSTVIECHRAGLKNSAFSFAAMLMRPEYRNKIDAKYKKKIEAMVRRPDTSETEEATTPCPFCQFLLPECELLCPGCKNNIPYCIATGRHMLKDDWTMCPHCGFPALYSEFKILLNSESTCPMCSERLNSSQLKKITDCSQYLRTEME
partner: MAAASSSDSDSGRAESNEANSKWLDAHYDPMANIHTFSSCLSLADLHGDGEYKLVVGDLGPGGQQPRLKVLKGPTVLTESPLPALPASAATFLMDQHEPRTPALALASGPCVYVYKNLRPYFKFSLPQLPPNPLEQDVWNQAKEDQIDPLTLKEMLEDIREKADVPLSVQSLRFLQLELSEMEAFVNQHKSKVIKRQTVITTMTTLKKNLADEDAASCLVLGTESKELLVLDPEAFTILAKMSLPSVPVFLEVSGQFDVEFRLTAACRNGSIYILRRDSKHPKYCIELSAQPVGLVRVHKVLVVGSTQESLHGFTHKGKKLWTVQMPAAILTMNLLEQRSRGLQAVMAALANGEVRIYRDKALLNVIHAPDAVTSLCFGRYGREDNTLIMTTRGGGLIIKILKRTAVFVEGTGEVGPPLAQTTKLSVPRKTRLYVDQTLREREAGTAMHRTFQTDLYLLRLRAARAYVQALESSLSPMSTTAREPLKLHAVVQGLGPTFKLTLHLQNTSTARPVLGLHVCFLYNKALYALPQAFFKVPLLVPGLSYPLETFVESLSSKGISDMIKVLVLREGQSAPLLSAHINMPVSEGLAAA

In the test the parent is B1. The settings on record: with bbs1_mouse Bbs1, Q3V3N7.
In the case of G341R, the “effect of a mutation on the interaction” value was “decreasing interaction strength”.
